Several values for one entry are separate records, joined by “and”; a condition that tells them apart may be missing. Equal values may be shown once. Read-outs that look alike come from different tables or passages of the source.
Key:
human 5T4-His protein [1] = target: T1, human 5T4-His protein (human, UniProt Q13641 32-355); assay: competitive ELISA, coated human 5T4, vs naptumomab-biotin
T1 construct: also called recombinant 5T4 protein (human 5T4-his tag); human 5T4 protein; not shown: His tag
T1 sequence (looked up): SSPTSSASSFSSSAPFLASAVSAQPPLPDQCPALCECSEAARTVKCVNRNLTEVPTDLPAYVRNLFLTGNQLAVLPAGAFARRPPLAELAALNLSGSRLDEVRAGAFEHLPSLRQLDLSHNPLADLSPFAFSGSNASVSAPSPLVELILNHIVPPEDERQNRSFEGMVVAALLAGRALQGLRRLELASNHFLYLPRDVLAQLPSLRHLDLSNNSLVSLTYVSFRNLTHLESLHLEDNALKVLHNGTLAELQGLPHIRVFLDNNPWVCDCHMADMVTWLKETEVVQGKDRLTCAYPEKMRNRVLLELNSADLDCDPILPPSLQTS

human 5T4-His protein [2] = target: T1, human 5T4-His protein; assay: SPR Biacore, Protein A capture
Experimental: (§1) The binding of the 393E9 humanized antibodies to recombinant 5T4 protein (human 5T4-his tag) was tested with Biacore using a capture method. The mAbs were captured using Protein A chip. A serial dilution of human 5T4-his tag protein was injected over captured antibody for 3 mins at a flow rate of 30 μl/min. The antigen was allowed to dissociate for 280-800 s. All the experiments were carried out on a Biacore T200. Data analysis was carried out using the Biacore T200 evaluation software.

human 5T4-His protein [3] = target: T1, human 5T4-His protein; assay: ELISA, coated 5T4-His
Experimental: To evaluate the binding activity of 393E9 humanized antibodies to human 5T4, the 393E9 chimeric antibody (393E9-C) along with 393E9 humanized mAbs were subjected to ELISA test.
Briefly, microtiter plates were coated with human 5T4-His protein at 1 μg/ml in PBS, 100 μl/well at 4° C. overnight, then blocked with 150 μl/well of 1% BSA. 4-fold dilutions of antibodies starting from 20 nM were added to each well and incubated for 1 hour at 37° C. The plates were washed with PBS/Tween and then incubated with Goat Anti-Human IgG-HRP for 30 mins at 37° C. After washing, the plates were developed with TMB substrate and analyzed by spectrophotometer at OD 450 nm. As shown in FIG. 12 and Table 9, most of the humanized antibodies bound to human 5T4 with high activity.

[4] = target: T2, human 5T4 expressed on cells (human, UniProt Q13641 32-420); assay: flow cytometry, CHOK1-hu5T4 cells
T2 construct: whole, on cells; also called CHOK1-hu5T4; CHO-K1-expressing human 5T4
T2 sequence (looked up): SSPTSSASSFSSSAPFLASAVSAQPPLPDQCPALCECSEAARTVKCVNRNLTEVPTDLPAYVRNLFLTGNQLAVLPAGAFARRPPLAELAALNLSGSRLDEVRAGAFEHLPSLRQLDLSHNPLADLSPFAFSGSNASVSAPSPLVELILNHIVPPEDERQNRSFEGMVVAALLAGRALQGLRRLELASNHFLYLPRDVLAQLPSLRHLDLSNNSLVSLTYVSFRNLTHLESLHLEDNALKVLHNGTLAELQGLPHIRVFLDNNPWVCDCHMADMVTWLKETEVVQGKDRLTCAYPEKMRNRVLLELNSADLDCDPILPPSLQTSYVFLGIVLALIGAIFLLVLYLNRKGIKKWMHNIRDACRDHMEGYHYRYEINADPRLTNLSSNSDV

cynomolgus 5T4 protein = target: T3, cynomolgus 5T4 protein (cynomolgus monkey, UniProt Q4R8Y9 35-355, limits assumed); assay: ELISA, coated antigen
T3 construct: Coated protein in ELISA; the screening step names a cyno 5T4-His protein; also called cyno 5T4; recombinant cyno 5T4-His protein
T3 sequence (looked up): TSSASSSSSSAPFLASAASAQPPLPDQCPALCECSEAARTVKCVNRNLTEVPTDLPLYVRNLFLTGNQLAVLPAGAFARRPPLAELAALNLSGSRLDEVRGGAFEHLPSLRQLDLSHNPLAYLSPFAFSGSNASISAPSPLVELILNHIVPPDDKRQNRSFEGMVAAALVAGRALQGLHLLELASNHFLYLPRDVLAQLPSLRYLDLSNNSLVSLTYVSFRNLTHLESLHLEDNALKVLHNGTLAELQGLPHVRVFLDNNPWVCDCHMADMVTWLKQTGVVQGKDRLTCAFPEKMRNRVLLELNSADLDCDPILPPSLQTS

human 5T4-His protein [5] = target: T1, human 5T4-His protein; assay: ELISA, coated antigen
human 5T4-His protein [6] = target: T1, human 5T4-His protein; assay: SPR Biacore, Protein A capture; remark: listed apart in the source
In short: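 Antibodies captured on a Protein A chip on Biacore T200; serial dilutions of His-tagged human 5T4 injected 2-3 min at 30 μl/min, dissociation 360-1000 s.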

human 5T4-His protein [7] = target: T1, human 5T4-His protein; assay: competitive ELISA, coated human 5T4, vs 257F1-biotin
Experimental: Competitive ELISA was carried out to classify the test 5T4 mAbs based on the binding epitope to human 5T4.
Briefly, microtiter plates were coated with human 5T4 proteins at 0.5 μg/ml in PBS, 100 μl/well at 4° C. overnight, then blocked with 150 μl/well of 1% BSA. Serial dilutions of chimeric antibodies as well as 0.2 ug/ml biotin-conjugated reference mAb were added to each well and incubated for 1 hour at RT. The plates were washed with PBS/Tween and then incubate with streptavidin-HRP for 15 mins at RT. After washing, the plates were developed with TMB substrate and analyzed by spectrophotometer at OD 450 nm. According to the competition performance with reference mAbs, the 5T4 mAbs were divided into four bins (Bin A-D), as shown in FIG. 3-8 and Table 4.

human 5T4-His protein [8] = target: T1, human 5T4-His protein; assay: as above; remark: listed apart in the source
human 5T4-His protein [9] = target: T1, human 5T4-His protein; assay: as above; remark: listed apart in the source
human 5T4-His protein [10] = target: T1, human 5T4-His protein; assay: competitive ELISA, coated human 5T4, vs 267B5-biotin
human 5T4-His protein [11] = target: T1, human 5T4-His protein; assay: as above; remark: listed apart in the source
human 5T4-His protein [12] = target: T1, human 5T4-His protein; assay: ELISA, coated human 5T4
Experimental: To evaluate the binding activity of clones, the 286B4 chimeric antibody along with 286B4 humanized mAbs were subjected to ELISA test.
Briefly, microtiter plates were coated with human 5T4-His protein at 1 μg/ml in PBS, 100 μl/well at 4° C. overnight, then blocked with 150 μl/well of 1% BSA. 4-fold dilutions of tested antibodies starting from 20 nM were added to each well and incubated for 1 hour at 37° C. The plates were washed with PBS/Tween and then incubated with Goat Anti-Human IgG-HRP for 30 mins at 37° C. After washing, the plates were developed with TMB substrate and analyzed by spectrophotometer at OD 450 nm. As shown in FIG. 16 and Table 15, most of the humanized clones bound to human 5T4 with high potency.

human 5T4-His protein [13] = target: T1, human 5T4-His protein; assay: ELISA, coated 5T4-His; remark: listed apart in the source
In short: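 Plates coated overnight at 4° C with 1 μg/ml 5T4-His, blocked with 1% BSA. Antibodies in 4-fold dilutions from 20 nM, 1 h at 37° C; bound antibody detected with anti-human IgG-HRP (30 min, 37° C), TMB development, OD 450 nm.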

human 5T4-His protein [14] = target: T1, human 5T4-His protein; assay: SPR Biacore, Protein A capture; remark: listed apart in the source
Experimental: as §1, with “286B4” for “393E9”

human 5T4-His protein [15] = target: T1, human 5T4-His protein; assay: SPR Biacore, Protein A capture; remark: listed apart in the source
In short: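 Humanized 14G12 antibodies captured on a Protein A chip; serial dilutions of human 5T4-His injected for 120 s-180 s at 30 μl/min, with dissociation over 360 s-1000 s on a Biacore T200.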

human 5T4-His protein [16] = target: T1, human 5T4-His protein; assay: competitive ELISA, coated human 5T4, vs naptumomab-biotin; remark: listed apart in the source
human 5T4-His protein [17] = target: T1, human 5T4-His protein; assay: competitive ELISA, coated human 5T4, vs 159D5-biotin

B1: 393E9 chimeric antibody (antibody, V domains shown)
VH: EVKLVESGGGLVQPGGSLSLSCAASGFTFTDYYMSWVRQPPGKALEWLGFIRNKGNGYTTENSASVKGRFTISRDNSQSILYLQMNALRAEDSATYYCARYRGNPHYAMDYWGQGTSVTVSS
VL: DIVLTQFPASLAVSLGQRATISCRASESVEFYGTSFLQWYQQKPGQPPKLLIYGASNVESGVPARFSGSGSGTDFSLSIHPVEEDDIAMYFCQQSRKVPSTFGGGTKLEIK
notes: chimeric mAb
IC50 (read off the curve) (human 5T4-His protein [1]): ~5 nM
Kd (human 5T4-His protein [2]): 0.463 nM
koff (human 5T4-His protein [2]): 0.000107 s⁻¹
kon (human 5T4-His protein [2]): 231000 M⁻¹ s⁻¹
EC50 (human 5T4-His protein [3]): 0.27 nM and 0.13 nM and 0.23 nM
EC50 (read off the curve) [4]: 5 nM
EC50 (cynomolgus 5T4 protein): 0.14 nM
EC50 (human 5T4-His protein [5]): 0.37 nM
Kd (human 5T4-His protein [6]): 0.0565 nM
koff (human 5T4-His protein [6]): 0.000183 s⁻¹
kon (human 5T4-His protein [6]): 3.24e+06 M⁻¹ s⁻¹

B2: 257F1 chimeric antibody (antibody, V domains shown)
VH: QVLLQQSGAEVARPGASVKLSCKASGYTFTSYGLNWLRQRTGQGLEWIGEIYPRSENTHYNEKFKGKATLTADKSSSTAYMELRSLTSEDSAVYFCARGDWDFDHWGQGTTLTVSS
VL: EILLTQSPAIIPASPGEKVTITCSASSSVSYMNWYQQKPGSSPKIWIYGISNLASGVPARFSGSGSGTFFSFTINSMEAEDVATYYCQQRSSYPRTFGGGTKLEIK
notes: chimeric mAb
IC50 (read off the curve) (human 5T4-His protein [7]): ~10 nM
IC50 (read off the curve) (human 5T4-His protein [8]): ~7 nM
IC50 (read off the curve) (human 5T4-His protein [9]): ~8 nM
EC50 (cynomolgus 5T4 protein): 0.11 nM
EC50 (human 5T4-His protein [5]): 0.56 nM
Kd (human 5T4-His protein [6]): 1.48 nM
koff (human 5T4-His protein [6]): 0.000275 s⁻¹
kon (human 5T4-His protein [6]): 186000 M⁻¹ s⁻¹

B3: 267B5 chimeric antibody (antibody, V domains shown)
VH: DVQFQESGPGLVKPSQSLSLTCSVTGYSITSSYYWNWIRQFPGDKLEWMGYISYDGSNNYNPSLKNRISITRDTSKKQFFLKLNSVTTEDTATYYCARSWDGGYAMDNWGQGTSVTVSS
VL: SIVMTQTPKFLLVSAGDRVTITCKASQSVSNDVAWYQQKPGQSPKLLIYFASNRYTGVPDRFTGSGYGTVFTFTISTVQADDLAVYFCQQDYTSPWTFGGGTRLEIK
notes: chimeric mAb
IC50 (read off the curve) (human 5T4-His protein [10]): ~5 nM
EC50 (cynomolgus 5T4 protein): 0.17 nM
EC50 (human 5T4-His protein [5]): 0.31 nM
Kd (human 5T4-His protein [6]): 1.62 nM
koff (human 5T4-His protein [6]): 0.000255 s⁻¹
kon (human 5T4-His protein [6]): 158000 M⁻¹ s⁻¹
IC50 (read off the curve) (human 5T4-His protein [11]): ~10 nM

B4: Hu286B4-10 (antibody, V domains shown)
VH: EVQLQESGPGLVKPSDTLSLTCAVSGYSISNNYYWNWIRQPPGKGLEWIGYITYDGSNNYNPSLKNRITMSRDTSKNQFSLKLSSVTAVDTAVYYCARGGGQLRFDYWGQGTTVTVSS
VL: SIVMTQSPSSLSASVGDRVTITCKASQSVSNEVTWYQQKPGKSPKMLIYYASNRYTGVPDRFSGSGYGTDFTFTISSLQPEDIATYFCQQDYSSPWTFGGGTKVEIK
notes: humanized
EC50 (read off the curve) (human 5T4-His protein [12]): ~0.08 nM
EC50 (human 5T4-His protein [13]): 2.61 nM
Kd (human 5T4-His protein [14]): 1.93 nM
koff (human 5T4-His protein [14]): 0.000204 s⁻¹
kon (human 5T4-His protein [14]): 106000 M⁻¹ s⁻¹

B5: 14G12 chimeric antibody (antibody, V domains shown)
VH: EVQLQQSGPELVKPGASVKISCKASGYAFSSSWMNWVKQRPGKGLEWIGRIYREDGHTNYNGKFKGKATLTADKSSTTAYMQLTSLTSEDSAVYFCANGGAMDYWGQGTSVTVSS
VL: DIQMTQSTSSLSASLGDRVTISCRASQDISNYLNWYQQKPDGTVKLLIYYTSRLHSGVPSRFSGSGSGTDYSLTISNLEQEDIATYFCQQDNTLPWTFGGGTKLEIK
notes: chimeric mAb
Kd (human 5T4-His protein [15]): 0.839 nM and 0.537 nM
koff (human 5T4-His protein [15]): 0.000336 s⁻¹ and 0.00033 s⁻¹
kon (human 5T4-His protein [15]): 401000 M⁻¹ s⁻¹ and 615000 M⁻¹ s⁻¹
EC50 (cynomolgus 5T4 protein): 0.17 nM
EC50 (human 5T4-His protein [5]): 0.19 nM
Kd (human 5T4-His protein [6]): 0.413 nM
koff (human 5T4-His protein [6]): 0.000222 s⁻¹
kon (human 5T4-His protein [6]): 538000 M⁻¹ s⁻¹
IC50 (read off the curve) (human 5T4-His protein [16]): ~4 nM

B6: 24F10 chimeric antibody (antibody, V domains shown)
VH: EVQLVESGGGLVKPGGSLKLSCAASGFTFSDYGMHWVRQAPEKGLEWVAYISSGTSTIYYTDTVKGRFTISRDNAKNTLFLQMTSLRSEDTAMYYCARGGDGYYRSTMDYWGQGISVTVSS
VL: DIVLTQSPASLAVSLGQRATISCRASQSVSSSSYSYMHWYQQKPGQPPKLLIKSASNLASGVPARFSGSGSGTDFTLNIHPVEEEDSATYYCQHSWEVPRTFGGGTKLEIK
notes: chimeric mAb
EC50 (cynomolgus 5T4 protein): 0.21 nM
EC50 (human 5T4-His protein [5]): 0.18 nM
Kd (human 5T4-His protein [6]): 0.302 nM
koff (human 5T4-His protein [6]): 0.000126 s⁻¹
kon (human 5T4-His protein [6]): 418000 M⁻¹ s⁻¹
IC50 (read off the curve) (human 5T4-His protein [17]): ~9 nM
